{"source": "patent US20240254229A1", "about": "(Molecular Partners, published 2024)", "binders": {"B1": {"name": "DARPin® protein #27 (designed binder)", "chain": "DLGKKLLEAALEGQLDEVRELLKAGADVNAKDQEGYTPLHLAAALGHLEIVEVLLKAGADVNAKDSIGRTPLHLAAYKGHLEIVEVLLKAGADVNAQDLLGETPADLAAEQGHQDIAEVLQKAAGSPTPTPTTPTPTPTTPTPTPTGSDLGVKLLLAASRGQLDEVRILLKAGADVNAKDIDEGYTPLHIAAYYGHLEIVEVLLKAGADVNAKDRYGKTPLHLAAISGHLEIVEVLLKAGADVNAQDDKGDTPADLAADYGHQDIAEVLQKAAGSPTPTPTTPTPTPTTPTPTPTGSDLGQKLLEAAWAGQDDEVRELLKAGADVNAKNSRGWTPLHTAAQTGHLEIFEVLLKAGADVNAKDDKGVTPLHLAAALGHLEIVEVLLKAGADVNAQDSWGTTPADLAAKYGHEDIAEVLQKAA", "notes": "CD123-CD33-CD3; also called αCD123-aCD33-αCD3_1; not shown: N-terminal His-tag"}}, "key": {"[1]": {"molecular_target": "T1, biotinylated extracellular domain of human CD123 (SEQ ID NO: 88), Fc and Avi tagged (human, UniProt P26951 19-303, biotinylated with BirA-GST (Avi tag))", "T1 construct": "also called hCD123", "T1 sequence": "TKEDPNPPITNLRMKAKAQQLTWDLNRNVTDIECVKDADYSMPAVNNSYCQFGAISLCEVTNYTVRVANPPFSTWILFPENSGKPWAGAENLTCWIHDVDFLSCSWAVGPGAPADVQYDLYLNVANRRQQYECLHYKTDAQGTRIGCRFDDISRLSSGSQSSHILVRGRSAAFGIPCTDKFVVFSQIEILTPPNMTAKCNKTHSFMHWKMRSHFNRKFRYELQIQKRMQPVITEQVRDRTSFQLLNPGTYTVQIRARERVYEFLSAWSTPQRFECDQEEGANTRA", "test": "SPR (ProteOn XPR36), target on GLC chip, DARPin as analyte"}, "[2]": {"molecular_target": "T2, biotinylated extracellular domain of human CD33 (SEQ ID NO: 87), Fc and Avi tagged (human, UniProt P20138 18-259, biotinylated with BirA-GST (Avi tag))", "T2 construct": "also called hCD33; human target hCD33", "T2 sequence (P20138 18-259 R69G)": "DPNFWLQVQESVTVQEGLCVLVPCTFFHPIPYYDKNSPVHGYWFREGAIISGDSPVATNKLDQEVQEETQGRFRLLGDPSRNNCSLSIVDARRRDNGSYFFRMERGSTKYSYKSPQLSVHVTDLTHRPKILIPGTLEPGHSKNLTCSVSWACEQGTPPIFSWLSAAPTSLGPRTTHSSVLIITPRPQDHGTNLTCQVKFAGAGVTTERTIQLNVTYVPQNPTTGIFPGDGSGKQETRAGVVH", "test": "SPR (ProteOn XPR36), target on GLC chip, DARPin as analyte"}, "[3]": {"molecular_target": "T3, hCD33 and hCD123 immobilized simultaneously on one switchSENSE chip (ratio 2:1, CD33:CD123) (human, UniProt P20138 18-259; P26951 19-305, limits assumed)", "T3 construct": "Not a complex: two separate ligands on one surface; used for avidity values and for off-rates; also called both ligands; both targets attached to the surface of the chip", "T3 sequence (P20138 18-259 limits assumed, one chain of several)": "as the sequence (P20138 18-259 R69G) above, with G52R counted along it", "test": "switchSENSE; KD,2 against KD,1", "procedure": "(§1) The designed ankyrin repeat proteins: DARPin® protein #20, DARPin® protein #21, DARPin® protein #22, DARPin® protein #27, DARPin® protein #40 and DARPin® protein #41 were tested in a concentration of 0.16 and 64 nM (in a buffer PE140 containing 10 mM Na2HPO4/NaH2PO4, 140 mM NaCl, 0.05% Tween20, 50 μM EDTA, 50 μM EGTA) for binding against two ligands hCD33 and hCD123, which both were immobilized simultaneously to DNA nanolevers, on the surface, at a pre-defined ratio (2:1, CD33:CD123) and 10% density (100:50) on an ADP-48-1-0 chip, where 100% density 1000 receptors/μm2 (preincubated R1-B48-CD123 and G1-A48-CD33 (100 nM) diluted in cNL-48 (dark)). Briefly the following steps were performed: [0724] Conjugation. Amine coupling of the two ligands (CD33 and CD123) to the DNA nanolever (A48, B48, respectively) and purification of the conjugates using the proFIRE® solution (Dynamic Biosensors GmbH) at 25° C. [0725] Evaluation of all the combined affinity and avidity of all different proteins to both ligands attached on the surface of an ADP chip using a DRX+ instrument (dynamic BIOSENSORS). [0726] Statistical analysis (repeatability from 2 to 5 times) including regeneration of the chip surface every concentration analyzed and long dissociation times and data were fitted using a bi-exponential global fit."}, "human serum albumin": {"molecular_target": "T4, human serum albumin (human, UniProt P02768 25-609)", "T4 construct": "also called HSA; SA", "T4 sequence (P02768 25-609 limits assumed)": "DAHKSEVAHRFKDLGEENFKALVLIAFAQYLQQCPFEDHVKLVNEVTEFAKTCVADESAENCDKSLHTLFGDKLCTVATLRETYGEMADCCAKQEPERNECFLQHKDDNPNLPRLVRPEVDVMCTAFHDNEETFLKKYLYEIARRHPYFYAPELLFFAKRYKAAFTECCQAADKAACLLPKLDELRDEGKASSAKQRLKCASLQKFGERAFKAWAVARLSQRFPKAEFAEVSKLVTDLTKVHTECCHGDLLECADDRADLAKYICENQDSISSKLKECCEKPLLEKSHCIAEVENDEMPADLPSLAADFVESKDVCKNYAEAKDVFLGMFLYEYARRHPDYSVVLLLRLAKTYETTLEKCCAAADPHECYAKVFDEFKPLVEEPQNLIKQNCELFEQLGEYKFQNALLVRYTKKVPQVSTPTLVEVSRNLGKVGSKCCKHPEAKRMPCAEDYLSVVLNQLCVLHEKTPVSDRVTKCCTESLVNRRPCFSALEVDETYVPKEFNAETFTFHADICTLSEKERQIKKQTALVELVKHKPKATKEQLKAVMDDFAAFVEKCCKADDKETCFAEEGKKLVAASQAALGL", "test": "SPR (ProteOn XPR36), target on GLC chip"}, "[4]": {"molecular_target": "T5, extracellular domain of human CD70 (SEQ ID NO: 89), hCD70-Fc-trimer, ACRO Biosystems (human, UniProt P32970 52-193, chemically biotinylated where the biotinylated form was used)", "T5 construct": "also called human CD70-Fc-trimer; Bio.CD70", "T5 sequence": "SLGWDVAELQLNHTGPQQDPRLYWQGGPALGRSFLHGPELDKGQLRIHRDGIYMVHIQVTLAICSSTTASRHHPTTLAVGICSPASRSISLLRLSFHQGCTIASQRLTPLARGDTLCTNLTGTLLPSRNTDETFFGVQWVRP", "test": "SPR (ProteOn XPR36), target on GLC chip"}, "[5]": {"molecular_target": "T6, hCD33 (recombinant, construct not stated) (human, UniProt P20138 18-259, limits assumed)", "T6 construct": "also called CD33 (Ligand 1)", "T6 sequence (P20138 18-259 limits assumed)": "as the sequence (P20138 18-259 R69G) above, with G52R counted along it", "test": "switchSENSE, CD33 and CD123 on one chip; kon to CD33", "procedure": "as §1"}}, "data": [{"binder": "B1", "values": [{"measurement": "Kd", "setting": "[1]", "result": 19, "unit": "nM"}, {"measurement": "Kd", "setting": "[2]", "result": 5.7, "unit": "nM"}, {"measurement": "fold lower KD,2 (avidity) than the measured affinity", "setting": "[3]", "result": "≥ 14", "unit": "fold"}, {"measurement": "binding result", "setting": "human serum albumin", "result": "no binding (tested: 100 nM (highest concentration))"}, {"measurement": "binding result", "setting": "[4]", "result": "no binding (tested: 100 nM (highest concentration))"}, {"measurement": "kon", "setting": "[5]", "result": "~1e+06", "unit": "M⁻¹ s⁻¹"}]}]}
